Results on 34 sequences are retold here after the NTF2 design screens of Basanta et al. (2020).

A short description of the data set: protease stability score; higher = more stable; yeast display proteolysis, trypsin and chymotrypsin.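 Note: relative to predicted unfolded state with 0 unfolded-like and 1 meaning tenfold more protease.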
Consider “SEEEHVAEELIKQFLRKFSTGDEDSMRNLFDPNVKIEQGEFDIHGREEETRYFRELRVHIEDSTAREIRVQGDKVDIDLEVVGIVHFNGKTVRRIIRTRVHLLKVDGQWHIKSIQIL”, for which the protease stability score was determined as 1.24.

The sequence “DESDKYVHHVAELMIEWFLTGDEELFEEYADPNMRVIFENHENHGREEVMKHMHDWWRKVKNVRVEYRIRDVQFQGDKARIEGELIIRIDGRNVIREVEYHILVIDGVLHSYKLVYK” yielded a protease stability score of 1.47.

In turn, “DEEERDAEEVFRKFMRDVFTGNWDHIHEMFDPHARSSIQVDGRHIELHGRDELTRIFIWLGVDHIELKHVHIQGEKVISIGIVRYNGKHTHLEVYLRKVDGRWIIHSVHVRIR” showed a protease stability score of 1.67.

The sequence “SHEEHLKRDMLERSFKAWLTGDEESLHELLDPHVRVHFNGRDFHGRELVSTLIREMLRWLGIKHSRFHHIQVFDGKARLELRLEQGEFEVEIEVISLKVDGRWFQHELRFH” gave a protease stability score of 1.02.

Take “DEEEEYLHKRAREFFRSFLTGDWHFLMHLLDPNVRWEVIIGNKRIERHGREELFKDLLRWLEEIRIKRMHVEEIHVFDGQLFMRVSAHGEFNGKERDTHEELVVVVVNGRFKSARIHVH”: the protease stability score turned out to be 1.65.

With “DEDMREAVKIAHRWLQHMTTGDEESIQSLADPHTKILFNGRELHGRHVITHLIREIRIKYTHLEHRDWRVVDGQLHLDFREDLRIEFDGQVRRIEIESHFMIIKINGRWFVHEVHLR”, the protease stability score worked out at 0.636.

“SEEEKTLERIARLHIQLWLTGDEDTLKKLADPDDRLVVDFENHTWEHHGREEVEKHTKHFLRHLRITHVDHHTVQIINGKAHMHTTVDFQVNGKIVKMHTTIIVVEVNGRLKFVRIEVH”: the protease stability score came to 1.22.

In turn, “SEEEESTHVWSRLFSHAIETGDEDLLERLIDPHVKLIVDGRELHGREELLTWIRRLFRHLGIDHMEVRIKNFDIINGRIRVEDELLLIVNGKEIRLETKVTVEKFDGKWHNQEVKIE” displayed a protease stability score of 0.776.

“DEDERHMRQTLEDYDHAVETGDWKRLRELADPDYKTDIDGVEIHGMELFWEHLRREVEKYKNVKVEFRLKRIRSIGDFMEIDGRLTLKYGDKEIRVRVIIHAIKVDGRWLFHRMIFG” came in with a protease stability score of 1.69.

The sequence “SEEQHHLYSVFVRLIRNHWTGNERELHELADPNTRHTVGDKTYHGMEHVAWLLTEWVKEARLEIILRDVHVFDGRVESRIEFRLRYGDFKTTHEVRVEVNVVDGRLKEMEIDIN” came in with a protease stability score of 1.43.

Turning to “SEHHKEAREMVEELIRLYETGDEDTLRTLADPHVRQDINGVDYVGREFAADLLIDEMREIRSHIHVHRIHTYNGQVHVDGHLEFIIGDKSYRLRVHMVVEKVDGKWLHRSEHYK”, the protease stability score is -0.116.

“DESTKAAEDIFEIIREMLETGDEETTRRLFDPDAKIIIGDKEIHGRENIELFMRLWLKQFDHVHDMTIRRMEIQGDKVIMDTEIHGTINGQRRTIRTRWIVVKINGKWSIHEVYFT” registered a protease stability score of 2.02.

For “DELEHRSQEAIEHIVHSMQTGNEEEIERNMDPNARIRVGNYHLHGRKEAVRWFNFFLTELRIHDIHIHDVKSQGEWIHIDGHIRGQINGQEHSVRTHIIVYKINGKWHDTSYHLS”, the protease stability score amounted to 0.723.

In turn, “DEDEDIVRRHLHKLSKAWRTGDEETEKKLADPHARIQIGDKTDHGMEKMTKDWHEFLREMRVEIRIEDTRVQGDKVVNHIHIHSDIDGKEIILHSRIIVRKIDGRWHIESFVLI” gave a protease stability score of 0.475.

For “DEDEQAFRHIMELKIHNINTGDEESLRRLMDPHVRIIIGDKQFHGMEFATEVFRRLGIKYIEDFKIDDLRIQGDKLDAHVTVRGNFNGVHTFHKMRLILRKYDGRWYIEHEEIK”, the protease stability score was 2.14.

Take “SDLDEEARRWLEKHLKNFFTGDWDKFMNNVDPNVRYIVGDKHKIGMESFSKDEKEHRDQYDHLEFRIHHEDTYGEKAVSDMHVTYHINGREIRRRVHLSFLVINGKIKSVRIEFE”: the protease stability score was 0.469.

Consider “DDRIRQVVEEWWKAVETNDPDKAKENVDKDVRVEVGDKQFRGSETLEKRIRDEKDHARVVVRMQSVSVHGDTVDVTYNVVVEVNGNPLRFKAQAFFRARNGRMQSIQFSFSKEDKKRVDG”, for which the protease stability score amounted to 1.78.

For “SEEEHLMRELLEVFLRNMLTGDWDKTAKLADPDTRFRAHVGDFKVERHGMEQFIKWLKDEREQWRIRRIHIDRIELVDGVIRVEGTIDVEYDGVREVERSELILVIIDGRIHEVEVHIR”, the protease stability score came to 1.44.

Consider “SEDEEDARRMVEIWKRSLETGDFKRILELMDPNTKYLFNGREYHGRHFVSRLFTEELERIKGARIEEESLEIQGNKVILHTRLHINGQHFKQITIIMKIDGKWFLESFSVE”, for which the protease stability score amounted to 2.01.

“DEEDELFEIFIREWRRLVKTGNFKEIVDNADPHAKSVINGKELVGREHMSRLMLELGIKYYDERSWDVYGDKVVIHGREKFNGRESESIVFAEKVNGRWVLTKVEIR” had a protease stability score of 1.45.

“DEREKEAKTLHQEWFRALQTGNEKRLHELLDPHVRSDVNGVKLHGRHALIKFLVKWLRQIDHNERLEIHDIRFQGDKSEEDVRVVVHIDGRRIDYETHVHLDIYDGVIREVEIDIK” had a protease stability score of 1.18.

“DEEEERRRHLIDVLLRLWHTGDEESFTNLADPHVRIHVGDKIFHGREAASRWMHNVREHWRLHHERDHDVKIQGEKVVRDGHVDIEFNGVRVRTRVEIILTVVNGQIKLIEIRIL” yielded a protease stability score of 1.26.

“SESEEDFRWFMHVLLKTFLTGDEDEFDSLIDPNVRLIVNGKDTHGWEVAVKFVRRFDHLDLYVRESEIQGDKVESDTELIVNFNGVSIKHKTRVIAEKVNGRWILREMRIG” registered a protease stability score of 1.44.

“SEREEEARKMTRRIIHTFFTGNEDFWDHLVDPNARVVINGVTVHGWERFQELLVDFLKEMRTRHIELRHLDAYGDKAHTDGRVDGDVNGQRVLRIEHLRVDVINGKVHSVEIEFR” gave a protease stability score of 0.916.

Take “DELDRISTRLADLFIHLVETGNWEFLKELLDPDVRMIIGDFELVGRETIIEFFEKLERHLGVDHSEIVIERRHSQGEKAELHTRLIVRVNGRKRVIDTRLELHWVDGRLKEINIHEH”: the protease stability score was determined as 1.17.

In the case of “SEREQTVRHWVELLIHLLITGDEETLVHLLDPHARADIDGVEMHGRKTTEFWLKLFPHIKIELRRVEIQGEKVHMDTTMIQGEKERSTRIHLDVINGRIKRHSYEIE”, the protease stability score was 0.262.

In turn, “DEDTRLAEDELQLWVEHVETGDEDTLFELLDPNVRLHIGDKELHGREAWVQWLVEARVEHVHIRDIKVVDGKVLITGRIIFRVGDKRVDTDHHMIIEKINGRWVLHEIHFH” registered a protease stability score of 2.07.

The sequence “DEEEEYYRRAVEIHERVLRTGDWRQLRELMDPRTKIDVGDKSFHGRDTITHWTKEMLEKFGVTKVEFHFDHLEMQGDKANIRGTLQINGQPIDISIHSVKIDGRWLIKFVKID” came in with a protease stability score of 0.822.

Regarding “DERRKLEEDILELMLRVFETGDFDTFIKFADPNTRSDVNGRQYHGREWLAEMWKITLEELGADHFELTSYDVFNGRVHLRIRVHVGDKQRSMTIEIQVINGKVQSIRIDIE”, the protease stability score came to 1.4.

Turning to “TEVEKKAREINKELSSALLTGDEHIMRRLADPHVRIFFNGQHLVGMEEMMKVLLHLRIKWKDIKIEDVKIQGDFMHIDTIEHGILEVGDKRIEFHREVEIYITKINGRWMIEELTYR”, the protease stability score was 1.34.

In turn, “DEDRHYIEQALEILEHNIQTGNWEIIARLLDPNMRLHIGDKDIHGREESADIIRHWIHRFPNLRVRIDHFEIYGNKVIFRGTMDFDGQRHDISIFSHKVNGRWLIKSIEYR” showed a protease stability score of 1.59.

Regarding “DESRREVRHFIDLWIELVETGDEDTIRHLADPHVKIVIGEKEDWGMEVFFRDFRRLGVDHMEIIVHRVDVIGNKAHVDFELRVHVDGQEFRFRLRLIVHKINGRWILRTIEIH”, the protease stability score came out at 1.68.

Sequence “HEEEEEFKHVVKEVKEFSETGDWDVLNELMDPHVRLFVNGRLHHGREQISEFWHKVKNVTLIIRHIRPVGEKLEVDGEMKFDGKNIEARIHAQKIDGRWITREYRII” showed a protease stability score of 1.12.

“SEDEKIASEIAEYVERAFRTGNEEEWERYADPHVRTDVNGQDLIGRRTLEEMFHRIDHLHDSRMEIHDVKLVNGRIISDVRLHLDSHYNGVRFEWEHEVRIQVDKINGRWRVKFIEIR”: the protease stability score came out at 0.428.
